Our source for the EC50 and positive % values is patent publication US20200010570A1 (SICHUAN KELUN BIOTECH BIOPHARMACEUTICAL, published 2020).

The target in experiment [1] is T1, recombinant protein PDL-1ECD-mFc (human, UniProt Q9NZQ7 19-238).
T1 construct: also called PDL-1-mFc; human PDL-1 (coated antigen); not shown: a TEV site before it is implied by the TEV digestion of
In words: competitive ELISA, method 'described in Example 13'; column 'Affinity by competitive ELISA (nM)'; competitor not given. (In general: In an ELISA, binding on a coated surface is turned into a signal by an enzyme label.)

Experiment [2] concerns the target T2, PDL-1 on the cell surface (293T cells expressing PDL-1) (human, UniProt Q9NZQ7 19-290). The experiment in a line: FACS, cells expressing PDL-1, method of Example 8. On the technique in general: A flow cytometer gives signals particle by particle.
The target in experiment [3] is T2, PDL-1 on the cell surface (293T cells …). In words: FACS, cells expressing PDL-1, method of Example 8; column 'Cell affinity by FACS'.
For experiment [4], the target named is T1, recombinant protein PDL-1ECD-mFc. The experiment in a line: indirect ELISA, method of Example 9; column 'Affinity by ELISA (nM)'.
For experiment [5], the target named is T3, PDL-1 antigen (PDL-1-mFc digested with TEV protease) (human, UniProt Q9NZQ7 19-238).
T3 construct: the whole entry is named
T3 sequence (Q9NZQ7 19-238 limits assumed): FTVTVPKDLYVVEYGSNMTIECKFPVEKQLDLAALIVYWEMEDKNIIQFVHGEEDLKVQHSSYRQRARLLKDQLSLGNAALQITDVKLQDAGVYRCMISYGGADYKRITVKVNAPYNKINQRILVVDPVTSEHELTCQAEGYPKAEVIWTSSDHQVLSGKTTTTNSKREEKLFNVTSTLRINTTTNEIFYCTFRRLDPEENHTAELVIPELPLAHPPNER
In words: Fortebio, PDL-1 on sensor, antibody then PD-1 10 µg/ml; competitor PD-1. (In general: Biolayer interferometry detects binding as a change in optical thickness at a sensor tip.)

As a reminder, the EC50 is the concentration needed to bring the measured effect to its halfway point.

T1 sequence (Q9NZQ7 19-238): as the sequence (Q9NZQ7 19-238 limits assumed) above
T2 sequence (Q9NZQ7 19-290 limits assumed): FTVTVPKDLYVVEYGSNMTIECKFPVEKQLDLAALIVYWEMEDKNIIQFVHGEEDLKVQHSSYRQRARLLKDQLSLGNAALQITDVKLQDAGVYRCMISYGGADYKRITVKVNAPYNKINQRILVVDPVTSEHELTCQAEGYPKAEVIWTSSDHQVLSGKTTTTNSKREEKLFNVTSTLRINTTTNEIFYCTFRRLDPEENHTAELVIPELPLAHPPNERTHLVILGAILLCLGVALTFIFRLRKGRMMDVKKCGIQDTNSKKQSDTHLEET

B1: monoclonal antibody 9F6 (antibody, V domains shown)
VH: EVQLQQSGAELVKPGASVKLSCTASGFNIKDTYMYWVKQRPEQGLEWIGRIDPANGNTKYDPKFQGKATITADTSANTAYLQLSSLTSEDTAVYYCSRGPPGGIGEYIYAMDYWGQGTSVTVSS
VL: QIVLTQSPAIMSASLGERVTMTCTASSSVSSSYLHWYQQKPGSSPKLWIYSTSNLASGVPARFSGSGSGTSYSLTISSMEAEDAATYYCHQYHRSPPTFGGGTKLEI
notes: Murine antibody from a hybridoma
Consider B1, for which the values for the EC50 in experiment [1], in experiment [3] and in experiment [4] were 0.767 nM, 2.93 nM and 0.029 nM, respectively. For the same molecule, the positive % in experiment [2] was found to be 80.2%.

B2: monoclonal antibody 5F10 (antibody, V domains shown)
VH: EVQLQQSGAELVKPGASVKLSCTASGFDIKDTYIHWVKQRPEQGLEWIGRIDPADGNTRYDPKFQDKTTITTDTSSNTAHLQLSSLTSEDTAVYYCARGLGAWFASWGQGTLVTVSA
VL: DIQMTQTTSSLSASLGDRVTISCRASQDITNSLNWYQQKPDGTVKLLIHYTSRLHSGVPSRFSGSGSGTDYSLTISNLEQEDIATYFCQQGHTLPPTFGGGTKLEI
notes: as for B1
In the case of B2, the EC50 in experiment [1] came out at 0.838 nM; in experiment [3], 1.48 nM; in experiment [4], 0.029 nM. In experiment [2], the positive % was determined as 60.3%.

B3: monoclonal antibody 5C10 (antibody, V domains shown)
VH: QVQLKESGPGLVAPSQNLSITCTVSGFSLSNYDISWIRQPPGKGLEWLGVIWTGGATNYNSAFMSRLSISRDNSKSQVFLKMNSLQTDDTAIYYCVRDSNYRYDEPFTYWGQGTLVTVSA
VL: DILLTQSPAILSVSPGERVSLSCRASQSIGTNIHWFQQRTNGSPRLLIKYASESISGIPSRFSGSGSGTDFTLSINSVESEDIADYYCQQSNSWPYTFGGGTKLEI
notes: Murine antibody purified from hybridoma supernatant; also called antibody of hybridoma cell strain LT005
Regarding B3, the concentration giving a half-maximal response (EC50) in experiment [1] stood at 0.785 nM; in experiment [5] it was 0.817 nM; in experiment [3] it was 2.3 nM; in experiment [4], 0.031 nM. The molecule further came in with a positive % in experiment [2] of 100%.
